# Assay results published in IntAct's records for PubMed 28691929.
# B1: E3 ubiquitin-protein ligase RFWD3 (Homo sapiens), Q6PCD5 (parent)
# chain: MAHEAMEYDVQVQLNHAEQQPAPAGMASSQGGPALLQPVPADVVSSQGVPSILQPAPAEVISSQATPPLLQPAPQLSVDLTEVEVLGEDTVENINPRTSEQHRQGSDGNHTIPASSLHSMTNFISGLQRLHGMLEFLRPSSSNHSVGPMRTRRRVSASRRARAGGSQRTDSARLRAPLDAYFQVSRTQPDLPATTYDSETRNPVSEELQVSSSSDSDSDSSAEYGGVVDQAEESGAVILEEQLAGVSAEQEVTCIDGGKTLPKQPSPQKSEPLLPSASMDEEEGDTCTICLEQWTNAGDHRLSALRCGHLFGYRCISTWLKGQVRKCPQCNKKARHSDIVVLYARTLRALDTSEQERMKSSLLKEQMLRKQAELESAQCRLQLQVLTDKCTRLQRRVQDLQKLTSHQSQNLQQPRGSQAWVLSCSPSSQGQHKHKYHFQKTFTVSQAGNCRIMAYCDALSCLVISQPSPQASFLPGFGVKMLSTANMKSSQYIPMHGKQIRGLAFSSYLRGLLLSASLDNTIKLTSLETNTVVQTYNAGRPVWSCCWCLDEANYIYAGLANGSILVYDVRNTSSHVQELVAQKARCPLVSLSYMPRAASAAFPYGGVLAGTLEDASFWEQKMDFSHWPHVLPLEPGGCIDFQTENSSRHCLVTYRPDKNHTTIRSVLMEMSYRLDDTGNPICSCQPVHTFFGGPTCKLLTKNAIFQSPENDGNILVCTGDEAANSALLWDAASGSLLQDLQTDQPVLDICPFEVNRNSYLATLTEKMVHIYKWE
# Variants of: B1
# Conditions: with rfa2_human RPA2, P15927
# rfa2_human RPA2, P15927, sequence (P15927 whole entry): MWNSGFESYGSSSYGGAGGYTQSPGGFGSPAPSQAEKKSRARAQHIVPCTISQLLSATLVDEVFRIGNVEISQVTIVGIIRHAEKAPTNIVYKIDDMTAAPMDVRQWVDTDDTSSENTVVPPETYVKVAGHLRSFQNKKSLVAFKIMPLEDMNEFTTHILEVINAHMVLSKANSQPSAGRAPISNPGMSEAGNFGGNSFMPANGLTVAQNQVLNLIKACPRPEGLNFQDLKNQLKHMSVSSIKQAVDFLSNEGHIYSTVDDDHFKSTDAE
row,Variant,effect of a mutation on the interaction
1,I639K,decreasing interaction strength

# Variants of: B1
# Conditions: with rfa2_human RPA2, P15927
# Remark: another data set of the same source
row,Variant,effect of a mutation on the interaction
1,I639K,disrupting interaction strength
